In patent publication US20230272011A1 (AVACTA LIFE SCIENCES, published 2023):

How the values were obtained:
cynomolgus serum albumin [1] = biological target: T1, cynomolgus serum albumin (cynomolgus); experiment: Octet biolayer interferometry, pH 7.4
T1 construct: also called CSA; cyno serum albumin
Method: (§1) Biotinylated antigen was captured onto SA sensors at 1 μg/ml for 600 seconds in a buffer comprising PBS-T (0.01% Tween 20)+1% casein at either pH 6.0 or 7.4. Association was carried out for 300 seconds and dissociation for 600 seconds, and regeneration was performed using 10 mM glycine pH 1.5 (GE Healthcare) for 3×5 seconds. All steps were carried out at 1000 rpm and 25° C. Purified AFFIMER® polypeptide in two-fold serial dilutions was analyzed at a starting concentration of approximately 10× K_{D value}. Kinetics analyses were carried out using the Octet data analysis software, subtracting the reference sensor (loaded with antigen), aligning the Y-axis to baseline, and using inter-step correction to align association to dissociation. Savitzky-Golay filtering was applied and the data processed. Analysis of the data was carried out with a 1:1 model, global fit, Rₘₐₓ unlinked by sensor.
(§2) AFFIMER® polypeptides were incubated with AcTEV for 1 hour at 30° C. as recommend by the manufacturer (Invitrogen) and removal of cleaved His tag by binding NiNTA resin (Generon) and collecting the cleaved protein flow through. […] Pharmacokinetic profile of IV-injected His tag cleaved AFFIMER® protein compared to C-terminally His-tagged AFFIMER® protein was evaluated.

human serum albumin [2] = biological target: T2, human serum albumin (human, UniProt P02768 25-609); experiment: Octet biolayer interferometry, pH 7.4
T2 construct: mature; Bought protein; biotinylated in the Octet and HTRF assays; also called HSA; HuSA
Method: as §1, §2

mouse serum albumin [3] = biological target: T3, mouse serum albumin (mouse, UniProt P07724 25-608); experiment: Octet biolayer interferometry, pH 7.4
T3 construct: also called MSA
T3 sequence (P07724 25-608 limits assumed): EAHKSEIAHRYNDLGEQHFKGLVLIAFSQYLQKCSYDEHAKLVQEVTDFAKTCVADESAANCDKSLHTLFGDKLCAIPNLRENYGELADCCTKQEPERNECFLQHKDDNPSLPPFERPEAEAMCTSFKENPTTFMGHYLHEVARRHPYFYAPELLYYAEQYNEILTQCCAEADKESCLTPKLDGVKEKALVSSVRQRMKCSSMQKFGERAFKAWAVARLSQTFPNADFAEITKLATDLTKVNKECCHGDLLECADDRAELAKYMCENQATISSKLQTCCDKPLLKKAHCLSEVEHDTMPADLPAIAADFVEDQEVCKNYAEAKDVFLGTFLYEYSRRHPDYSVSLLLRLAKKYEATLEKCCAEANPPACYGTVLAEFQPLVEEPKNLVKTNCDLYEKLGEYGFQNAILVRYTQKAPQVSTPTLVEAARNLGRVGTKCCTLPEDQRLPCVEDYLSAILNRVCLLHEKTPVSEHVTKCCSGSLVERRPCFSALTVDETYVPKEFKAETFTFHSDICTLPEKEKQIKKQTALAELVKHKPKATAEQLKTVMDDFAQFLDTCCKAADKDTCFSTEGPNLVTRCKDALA
Method: as §1, §2

cynomolgus serum albumin [4] = biological target: T1, cynomolgus serum albumin; experiment: Octet biolayer interferometry, pH 6.0
Method: as §1, §2

human serum albumin [5] = biological target: T2, human serum albumin; experiment: Octet biolayer interferometry, pH 6.0
Method: as §1, §2

mouse serum albumin [6] = biological target: T3, mouse serum albumin; experiment: Octet biolayer interferometry, pH 6.0
Method: as §1, §2

mPD-L1 = biological target: T4, mPD-L1 (mouse, UniProt Q9EP73 19-238, limits assumed); experiment: competition ELISA: mPD-L1 pre-incubated with the AFFIMER polypeptide and added to coated mPD-1; blocked ligand mPD-1
T4 construct: May be the same reagent as the mouse PD-L1-Fc of the Biacore run
T4 sequence (Q9EP73 19-238 limits assumed): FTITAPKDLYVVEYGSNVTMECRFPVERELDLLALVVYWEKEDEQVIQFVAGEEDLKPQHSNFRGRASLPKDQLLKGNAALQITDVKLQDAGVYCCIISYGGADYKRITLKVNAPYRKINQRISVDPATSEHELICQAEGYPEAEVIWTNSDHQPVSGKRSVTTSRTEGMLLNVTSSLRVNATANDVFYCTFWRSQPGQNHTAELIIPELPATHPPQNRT
Method: Briefly, PD-1 was coated overnight on the plate at 1 μg/ml in carbonate buffer. Then plates were saturated using 5% Casein/PBS buffer. […] After saturation, the mix was added to the plates and incubated for 90 minutes. Plates were then washed and the detection polyclonal antibody, biotinylated anti-PD-L1, was added. After washing the plates, streptavidin-HRP was added for 30 minutes. After a final wash, development of the reaction was performed using TMB (Pierce) and the plates were read using a plate reader at 450 nm (FIG. 26C).

human serum albumin [7] = biological target: T2, human serum albumin; experiment: binding ELISA on coated albumin, pH 6.0, panel 'HSA Binding at pH 6.0'
Method: (§3) Briefly, ELISA was performed as follow:
(§4) Human (Sigma-Aldrich); Cynomolgus and Mouse (Abcam); Equine (Abcam); Canine (Abcam); Mouse (Sigma-Aldrich); Rabbit (Sigma-Aldrich); Porcine (Sigma-Aldrich);, and Rat (Sigma-Aldrich) serum albumin were coated overnight on 96 well plates (Corning Costar) at 1 μg/ml in PBS at the appropriate pH (pH 6.0 or 7.4). Plates were saturated using 5% Casein (Sigma-Aldrich) buffer in PBS. […] Plates were then washed and AFFIMER® proteins were detected using a biotinylated polyclonal antibody anti-Cystatin (R&D System) for 90 minutes. After washing, streptavidin-HRP (Thermo Fisher Scientific) was added and incubated for 30 minutes.

cynomolgus serum albumin [8] = biological target: T1, cynomolgus serum albumin; experiment: Octet biolayer interferometry, biotinylated albumin on SA sensors, pH 7.4
Method: as §1

human serum albumin [9] = biological target: T2, human serum albumin; experiment: as above
Method: as §1

mouse serum albumin [10] = biological target: T3, mouse serum albumin; experiment: as above
Method: as §1

cynomolgus serum albumin [11] = biological target: T1, cynomolgus serum albumin; experiment: SPR (Biacore T200), albumin amine-coupled to CM5, Affimer analyte, pH 7.4
Method: (§5) Affinities for mouse, human, and cynomolgus serum were also measured at pH 7.4 for four (4) AFFIMER® binders using surface plasmon resonance (SPR) (FIG. 5, Table 5). […] A concentration titration of AFFIMER® monomers was run as analyte at a flow rate of 30 μl/min or 60 μl/min. Fc2-1, Fc3-1 and Fc4-1 kinetic data was blank subtracted and fit to a 1:1 Langmuir binding model (BIAcore Evalution software; GE) to calculate KD values.

human serum albumin [12] = biological target: T2, human serum albumin; experiment: as above
Method: as §5

mouse serum albumin [13] = biological target: T3, mouse serum albumin; experiment: as above
Method: as §5

canine serum albumin [14] = biological target: T5, canine serum albumin (canine, UniProt P49822 25-608); experiment: binding ELISA, coated albumin, pH 7.4
T5 sequence (P49822 25-608 limits assumed): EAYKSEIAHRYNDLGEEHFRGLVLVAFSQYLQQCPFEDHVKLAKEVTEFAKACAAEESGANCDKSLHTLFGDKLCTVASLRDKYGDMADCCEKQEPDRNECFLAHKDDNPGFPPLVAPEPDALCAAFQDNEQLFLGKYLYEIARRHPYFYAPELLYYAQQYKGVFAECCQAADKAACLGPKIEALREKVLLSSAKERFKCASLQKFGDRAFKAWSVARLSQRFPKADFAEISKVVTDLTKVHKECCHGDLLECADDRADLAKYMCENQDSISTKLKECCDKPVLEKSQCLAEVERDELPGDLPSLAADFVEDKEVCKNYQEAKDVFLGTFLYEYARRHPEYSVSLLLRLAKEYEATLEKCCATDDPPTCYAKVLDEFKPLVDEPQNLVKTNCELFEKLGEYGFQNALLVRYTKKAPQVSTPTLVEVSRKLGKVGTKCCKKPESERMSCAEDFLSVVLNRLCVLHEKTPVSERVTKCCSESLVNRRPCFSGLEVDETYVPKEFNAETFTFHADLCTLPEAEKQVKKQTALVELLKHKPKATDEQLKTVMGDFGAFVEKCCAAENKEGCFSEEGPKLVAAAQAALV
Method: as §3, §4

rabbit serum albumin = rabbit serum albumin (rabbit, UniProt P49065 25-608); experiment: binding ELISA, coated albumin, pH 7.4
Chain of rabbit serum albumin (P49065 25-608 limits assumed): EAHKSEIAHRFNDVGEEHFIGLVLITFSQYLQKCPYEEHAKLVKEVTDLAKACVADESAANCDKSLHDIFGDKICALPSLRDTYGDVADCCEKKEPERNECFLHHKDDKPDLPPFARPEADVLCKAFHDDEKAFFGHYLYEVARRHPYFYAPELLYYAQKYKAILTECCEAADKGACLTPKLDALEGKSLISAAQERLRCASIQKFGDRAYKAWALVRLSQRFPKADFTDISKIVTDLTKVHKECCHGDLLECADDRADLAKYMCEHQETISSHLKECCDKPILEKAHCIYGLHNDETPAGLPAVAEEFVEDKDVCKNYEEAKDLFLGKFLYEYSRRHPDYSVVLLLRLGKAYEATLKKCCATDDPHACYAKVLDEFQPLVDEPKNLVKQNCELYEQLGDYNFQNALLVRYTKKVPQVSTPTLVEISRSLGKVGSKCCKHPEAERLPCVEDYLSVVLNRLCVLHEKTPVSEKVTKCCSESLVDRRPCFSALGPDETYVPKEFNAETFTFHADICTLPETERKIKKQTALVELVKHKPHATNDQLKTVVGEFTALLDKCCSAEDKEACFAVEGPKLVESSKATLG
Method: as §3, §4

cynomolgus serum albumin [15] = biological target: T1, cynomolgus serum albumin; experiment: binding ELISA, coated albumin, pH 7.4
Method: as §3, §4

human serum albumin [16] = biological target: T2, human serum albumin; experiment: binding ELISA, coated albumin, pH 7.4
Method: as §3, §4

rat serum albumin = rat serum albumin (rat, UniProt P02770 25-608); experiment: binding ELISA, coated albumin, pH 7.4
Chain of rat serum albumin (P02770 25-608 limits assumed): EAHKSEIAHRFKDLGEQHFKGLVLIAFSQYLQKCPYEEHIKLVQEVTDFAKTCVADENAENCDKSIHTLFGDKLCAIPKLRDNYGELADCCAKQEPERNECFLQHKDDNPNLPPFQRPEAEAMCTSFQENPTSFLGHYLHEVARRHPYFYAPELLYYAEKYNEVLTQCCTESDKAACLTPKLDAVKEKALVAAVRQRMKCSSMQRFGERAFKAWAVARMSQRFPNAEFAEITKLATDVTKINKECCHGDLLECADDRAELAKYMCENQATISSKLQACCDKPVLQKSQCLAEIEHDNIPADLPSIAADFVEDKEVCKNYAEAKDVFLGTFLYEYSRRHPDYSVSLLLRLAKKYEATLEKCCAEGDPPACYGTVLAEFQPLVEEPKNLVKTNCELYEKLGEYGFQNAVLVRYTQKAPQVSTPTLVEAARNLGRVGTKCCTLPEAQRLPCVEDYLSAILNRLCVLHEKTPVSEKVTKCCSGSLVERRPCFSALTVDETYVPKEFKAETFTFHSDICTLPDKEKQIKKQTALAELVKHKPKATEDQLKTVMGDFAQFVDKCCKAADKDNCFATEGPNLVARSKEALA
Method: as §3, §4

porcine serum albumin = porcine serum albumin (porcine, UniProt P08835 25-607); experiment: binding ELISA, coated albumin, pH 7.4
Chain of porcine serum albumin (P08835 25-607 limits assumed): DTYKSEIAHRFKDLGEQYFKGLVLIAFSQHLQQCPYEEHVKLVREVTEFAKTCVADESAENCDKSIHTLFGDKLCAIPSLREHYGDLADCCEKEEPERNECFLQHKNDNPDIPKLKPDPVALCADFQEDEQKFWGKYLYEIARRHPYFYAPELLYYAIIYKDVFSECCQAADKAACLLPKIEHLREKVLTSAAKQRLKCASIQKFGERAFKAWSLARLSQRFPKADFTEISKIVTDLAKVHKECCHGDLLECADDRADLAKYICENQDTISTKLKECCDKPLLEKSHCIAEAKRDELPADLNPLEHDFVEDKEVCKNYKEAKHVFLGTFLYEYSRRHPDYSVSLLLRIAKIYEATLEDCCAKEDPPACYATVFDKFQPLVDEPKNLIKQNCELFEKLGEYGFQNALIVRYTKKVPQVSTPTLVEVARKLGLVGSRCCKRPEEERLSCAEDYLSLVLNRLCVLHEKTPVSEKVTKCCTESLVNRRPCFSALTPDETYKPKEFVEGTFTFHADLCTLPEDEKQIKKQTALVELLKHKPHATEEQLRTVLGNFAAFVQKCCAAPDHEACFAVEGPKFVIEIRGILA
Method: as §3, §4

equine serum albumin = equine serum albumin (equine, UniProt P35747 25-607); experiment: binding ELISA, coated albumin, pH 7.4
Chain of equine serum albumin (P35747 25-607 limits assumed): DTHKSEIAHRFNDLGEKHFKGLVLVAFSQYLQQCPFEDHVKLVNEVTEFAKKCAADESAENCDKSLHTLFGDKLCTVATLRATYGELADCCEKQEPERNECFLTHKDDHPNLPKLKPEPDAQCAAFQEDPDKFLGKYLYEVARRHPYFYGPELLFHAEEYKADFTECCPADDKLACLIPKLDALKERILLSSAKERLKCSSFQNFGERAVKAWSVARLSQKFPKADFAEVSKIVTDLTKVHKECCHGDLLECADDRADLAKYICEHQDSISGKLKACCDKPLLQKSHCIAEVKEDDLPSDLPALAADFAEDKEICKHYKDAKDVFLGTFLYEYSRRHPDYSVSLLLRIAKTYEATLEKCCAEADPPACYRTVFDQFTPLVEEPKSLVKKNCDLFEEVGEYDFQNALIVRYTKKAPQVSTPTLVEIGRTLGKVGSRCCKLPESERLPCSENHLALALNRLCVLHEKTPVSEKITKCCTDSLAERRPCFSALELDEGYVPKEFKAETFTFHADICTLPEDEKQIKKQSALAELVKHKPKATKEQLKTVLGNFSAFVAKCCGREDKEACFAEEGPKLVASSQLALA
Method: as §3, §4

cynomolgus serum albumin [17] = biological target: T1, cynomolgus serum albumin; experiment: Octet biolayer interferometry, biotinylated albumin on SA sensors, pH 6.0
Method: as §1

human serum albumin [18] = biological target: T2, human serum albumin; experiment: as above
Method: as §1

mouse serum albumin [19] = biological target: T3, mouse serum albumin; experiment: as above
Method: as §1

cynomolgus serum albumin [20] = biological target: T1, cynomolgus serum albumin; experiment: BLI (Octet), biotinylated albumin on SA sensor, pH 6.0
Method: as §1

human serum albumin [21] = biological target: T2, human serum albumin; experiment: as above
Method: as §1

mouse serum albumin [22] = biological target: T3, mouse serum albumin; experiment: as above
Method: as §1

cynomolgus serum albumin [23] = biological target: T1, cynomolgus serum albumin; experiment: BLI (Octet), biotinylated albumin on SA sensor, pH 7.4
Method: as §1

human serum albumin [24] = biological target: T2, human serum albumin; experiment: as above
Method: as §1

mouse serum albumin [25] = biological target: T3, mouse serum albumin; experiment: as above
Method: as §1

canine serum albumin [26] = biological target: T5, canine serum albumin; experiment: binding ELISA on coated albumin, pH 6.0, panel 'Canine SA Binding at pH 6.0'
Method: as §3, §4

human serum albumin [27] = biological target: T2, human serum albumin; experiment: Biacore, immobilised HSA, running buffer pH 7.4
Method: as §5

mouse serum albumin [28] = biological target: T3, mouse serum albumin; experiment: Biacore, immobilised MSA, pH 6.0
Source text: (§6) […] Fc2-1, Fc3-1 and Fc4-1 kinetic data was blank subtracted and fit to a 1:1 Langmuir binding model (BIAcore Evalution software; GE) to calculate KD values.

[29] = biological target: T6, human PD-L1-Fc (R&D Systems) chimeric protein (human, UniProt Q9NZQ7 19-239); experiment: Biacore single cycle kinetics on human PD-L1 Fc
T6 construct: Bought reagent; also called rhPD-L1-Fc; huPD-L1; Fc part of the bought chimera not given, not described
T6 sequence (Q9NZQ7 19-239, change not shown): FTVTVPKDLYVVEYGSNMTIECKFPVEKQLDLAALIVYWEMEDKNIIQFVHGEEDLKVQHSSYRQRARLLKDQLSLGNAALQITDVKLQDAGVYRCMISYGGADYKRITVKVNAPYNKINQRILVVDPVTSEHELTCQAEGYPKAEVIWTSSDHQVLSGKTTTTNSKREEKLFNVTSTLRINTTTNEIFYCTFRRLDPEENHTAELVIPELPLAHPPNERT

human serum albumin [30] = biological target: T2, human serum albumin; experiment: binding ELISA on coated HSA, pH 7.4
Method: (§7) After saturation with 5% PBS Casein pH 7.5, plates were washed and a dilution of AFFIMER® trimers or controls were incubated on the plate for 90 minutes. Plates were then washed, and a biotinylated polyclonal antibody anti-cystatin A (R&D Systems) was added for 1 hour. Plates were washed and AFFIMER® ILFs were detected using streptavidin-HRP. After a last washing step, TMB was added for the development of the experiment, and the plates were read at 450 nm.

mouse serum albumin [31] = biological target: T3, mouse serum albumin; experiment: binding ELISA on coated MSA, pH 7.4
Method: as §7

human serum albumin [32] = biological target: T2, human serum albumin; experiment: Biacore, immobilised HSA, running buffer pH 6.0
Source text: as §6

T1 sequence (A2V9Z4 25-608): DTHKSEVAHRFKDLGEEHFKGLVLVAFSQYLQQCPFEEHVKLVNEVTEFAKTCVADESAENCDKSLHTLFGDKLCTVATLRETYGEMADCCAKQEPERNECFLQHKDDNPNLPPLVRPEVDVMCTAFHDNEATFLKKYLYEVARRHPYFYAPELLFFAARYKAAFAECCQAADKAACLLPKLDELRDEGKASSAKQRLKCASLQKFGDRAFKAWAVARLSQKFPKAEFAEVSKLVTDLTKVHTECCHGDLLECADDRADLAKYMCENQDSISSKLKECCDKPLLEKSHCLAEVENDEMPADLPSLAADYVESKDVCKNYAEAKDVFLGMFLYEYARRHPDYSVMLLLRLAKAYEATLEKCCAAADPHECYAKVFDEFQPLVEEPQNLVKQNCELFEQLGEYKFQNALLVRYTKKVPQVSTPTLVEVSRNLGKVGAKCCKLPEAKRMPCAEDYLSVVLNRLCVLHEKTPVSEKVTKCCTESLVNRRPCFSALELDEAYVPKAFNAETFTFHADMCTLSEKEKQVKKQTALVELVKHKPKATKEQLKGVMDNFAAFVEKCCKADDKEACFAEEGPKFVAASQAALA

B1: HSA-41, C-terminal 6x His tag cleaved (designed binder)
chain: MIPRGLSEAKPATPEIQEIVDKVKPQLEEKTNETYGKLEAVQYKTQVLANFFQRRWPGSTNYYIKVRAGDNKYMHLKVFNGPWKFRNTDRGADRVLTGYQVDKNKDDELTGFEQKLISEEDL
notes: also called His tag cleaved AFFIMER protein; C-terminally His tag cleaved AFFIMER lead clone
Kd (cynomolgus serum albumin [1]): 280 nM
Kd (human serum albumin [2]): 7.65 nM
Kd (mouse serum albumin [3]): 104 nM
Kd (cynomolgus serum albumin [4]): 189 nM
Kd (human serum albumin [5]): 4.71 nM
Kd (mouse serum albumin [6]): 38.1 nM

B2: AVA04-182 (designed binder)
chain: MIPRGLSEAKPATPEIQEIVDKVKPQLEEKTNETYGKLEAVQYKTQVLAFALPEFEYMSTNYYIKVRAGDNKYMHLKVFNGPPMIRRKNEVADRVLTGYQVDKNKDDELTGF
notes: also called its control
IC50 (mPD-L1): 112 nM

B3: HSA-36 (designed binder)
chain: MIPRGLSEAKPATPEIQEIVDKVKPQLEEKTNETYGKLEAVQYKTQVLAGHYARYWPGSTNYYIKVRAGDNKYMHLKVFNGPWAQKSKVHQADRVLTGYQVDKNKDDELTGFHHHHHH
EC50 (read off the curve) (human serum albumin [7]): ~400 nM
koff (cynomolgus serum albumin [8]): 0.0505 s⁻¹
koff (human serum albumin [9]): 0.00257 s⁻¹
kon (human serum albumin [9]): 18900 M⁻¹ s⁻¹
kon (mouse serum albumin [10]): 215000 M⁻¹ s⁻¹
Kd (cynomolgus serum albumin [11]): 1510 nM
koff (cynomolgus serum albumin [11]): 0.16 s⁻¹
kon (cynomolgus serum albumin [11]): 106000 M⁻¹ s⁻¹
Kd (human serum albumin [12]): 200 nM
koff (human serum albumin [12]): 0.00451 s⁻¹
kon (human serum albumin [12]): 22500 M⁻¹ s⁻¹
Kd (mouse serum albumin [13]): 207 nM
koff (mouse serum albumin [13]): 0.15 s⁻¹
kon (mouse serum albumin [13]): 726000 M⁻¹ s⁻¹
EC50 (canine serum albumin [14]): 383 nM
EC50 (rabbit serum albumin): 863 nM
EC50 (cynomolgus serum albumin [15]): 447 nM
EC50 (human serum albumin [16]): 687 nM
EC50 (rat serum albumin): 9.73 nM
EC50 (porcine serum albumin): 268 nM
EC50 (equine serum albumin): 662 nM
koff (cynomolgus serum albumin [17]): 0.0123 s⁻¹
kon (cynomolgus serum albumin [17]): 10800 M⁻¹ s⁻¹
koff (human serum albumin [18]): 0.00175 s⁻¹
kon (human serum albumin [18]): 15400 M⁻¹ s⁻¹
koff (mouse serum albumin [19]): 0.0874 s⁻¹
kon (mouse serum albumin [19]): 200000 M⁻¹ s⁻¹
Kd (cynomolgus serum albumin [20]): 1140 nM
Kd (human serum albumin [21]): 132 nM
Kd (mouse serum albumin [22]): 435 nM
Kd (cynomolgus serum albumin [23]): 2600 nM
Kd (human serum albumin [24]): 136 nM
Kd (mouse serum albumin [25]): 244 nM
EC50 (read off the curve) (canine serum albumin [26]): ~200 nM

B4: AVA04-251 XT60 (designed binder)
chain: MIPRGLSEAKPATPEIQEIVDKVKPQLEEKTNETYGKLEAVQYKTQVLAREGRQDWVLSTNYYIKVRAGDNKYMHLKVFNGPWVPFPHQQLADRVLTGYQVDKNKDDELTGFAEAAAKEAAAKEAAAKEAAAKEAAAKEAAAKMIPRGLSEAKPATPEIQEIVDKVKPQLEEKTNETYGKLEAVQYKTQVLAREGRQDWVLSTNYYIKVRAGDNKYMHLKVFNGPWVPFPHQQLADRVLTGYQVDKNKDDELTGFAEAAAKEAAAKEAAAKEAAAKEAAAKEAAAKMIPRGLSEAKPATPEIQEIVDKVKPQLEEKTNETYGKLEAVQYKTQVLADWWQAKWPHSTNYYIKVRAGDNKYMHLKVFNGPYKVHQSSGGADRVLTGYQVDKNKDDELTGFHHHHHH
Kd (human serum albumin [27]): 661 nM
koff (human serum albumin [27]): 0.00846 s⁻¹
kon (human serum albumin [27]): 12800 M⁻¹ s⁻¹
Kd (mouse serum albumin [28]): 108 nM
koff (mouse serum albumin [28]): 0.0326 s⁻¹
kon (mouse serum albumin [28]): 301000 M⁻¹ s⁻¹
Kd [29]: 0.558 nM
koff [29]: 0.000331 s⁻¹
kon [29]: 594000 M⁻¹ s⁻¹
EC50 (human serum albumin [30]): 5.7 nM
EC50 (mouse serum albumin [31]): 134 nM
Kd (human serum albumin [32]): 67.8 nM
koff (human serum albumin [32]): 0.00339 s⁻¹
kon (human serum albumin [32]): 50100 M⁻¹ s⁻¹
